Source: patent US20210079115A1 (Janssen / Centocor, published 2021)

Molecular target: full length human PSMA on cells (LNCaP, C4-2B, LNCaP AR, 22RV1 prostate tumor cells; human tissue) (human, UniProt Q04609 1-750)
Experiment: cell-based or functional assay

Chain of full length human PSMA on cells (LNCaP, C4-2B, LNCaP AR, 22RV1 prostate tumor cells; human tissue) (Q04609 whole entry): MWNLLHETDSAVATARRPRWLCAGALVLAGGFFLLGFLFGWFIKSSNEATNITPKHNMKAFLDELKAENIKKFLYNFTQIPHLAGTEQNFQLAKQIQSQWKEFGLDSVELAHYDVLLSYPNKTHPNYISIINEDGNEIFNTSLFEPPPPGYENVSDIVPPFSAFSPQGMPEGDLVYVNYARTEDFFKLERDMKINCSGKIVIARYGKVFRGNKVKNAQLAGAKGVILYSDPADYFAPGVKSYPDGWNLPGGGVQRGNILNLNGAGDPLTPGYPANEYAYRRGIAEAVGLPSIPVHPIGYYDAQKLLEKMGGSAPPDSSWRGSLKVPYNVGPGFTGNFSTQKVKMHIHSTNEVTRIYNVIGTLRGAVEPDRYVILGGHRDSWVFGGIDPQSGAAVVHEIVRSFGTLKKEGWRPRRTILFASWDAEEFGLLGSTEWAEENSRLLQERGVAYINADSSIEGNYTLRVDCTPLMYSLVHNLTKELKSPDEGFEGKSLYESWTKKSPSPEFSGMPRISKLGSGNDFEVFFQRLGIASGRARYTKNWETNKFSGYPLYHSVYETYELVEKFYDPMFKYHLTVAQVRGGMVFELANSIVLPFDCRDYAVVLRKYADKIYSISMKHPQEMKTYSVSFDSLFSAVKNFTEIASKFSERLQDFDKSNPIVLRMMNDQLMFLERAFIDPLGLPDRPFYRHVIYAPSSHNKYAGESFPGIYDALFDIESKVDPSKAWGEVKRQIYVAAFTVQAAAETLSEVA

B1: PS3B27 PSMA×CD3 bispecific antibody (PSMB127 × CD3B219) (bispecific antibody, human IgG4 S228P, kappa, lambda, F234A L235A)
heavy 1: not shown
light 1: not shown
heavy 2: EVQLVESGGGLVQPGGSLRLSCAASGFTFNTYAMNWVRQAPGKGLEWVARIRSKYNNYATYYAASVKGRFTISRDDSKNSLYLQMNSLKTEDTAVYYCARHGNFGNSYVSWFAYWGQGTLVTVSSASTKGPSVFPLAPCSRSTSESTAALGCLVKDYFPEPVTVSWNSGALTSGVHTFPAVLQSSGLYSLSSVVTVPSSSLGTKTYTCNVDHKPSNTKVDKRVESKYGPPCPPCPAPEAAGGPSVFLFPPKPKDTLMISRTPEVTCVVVDVSQEDPEVQFNWYVDGVEVHNAKTKPREEQFNSTYRVVSVLTVLHQDWLNGKEYKCKVSNKGLPSSIEKTISKAKGQPREPQVYTLPPSQEEMTKNQVSLTCLVKGFYPSDIAVEWESNGQPENNYKTTPPVLDSDGSFLLYSKLTVDKSRWQEGNVFSCSVMHEALHNHYTQKSLSLSLGK
light 2: QTVVTQEPSLTVSPGGTVTLTCRSSTGAVTTSNYANWVQQKPGQAPRGLIGGTNKRAPGTPARFSGSLLGGKAALTLSGVQPEDEAEYYCALWYSNLWVFGGGTKLTVLGQPKAAPSVTLFPPSSEELQANKATLVCLISDFYPGAVTVAWKADSSPVKAGVETTTPSKQSNNKYAASSYLSLTPEQWKSHRSYSCQVTHEGSTVEKTVAPTECS
With B1 the “T cell activation (CD25 expression) median EC50, C4-2B cells co-cultured with donor T cells, 48 hours” value was 0.06 nM and the “T cell dependent cytotoxicity median EC50, C4-2B cells, E:T 3:1, 72 hours” value was 0.08 nM.
